In patent US20220106406A1 (UNIVERSITY OF KENTUCKY RESEARCH FOUNDATION, published 2022):

T1: 3×FLAG-PRL-2 (human, UniProt Q12974 1-164)
T1 construct: Expressed in HEK293T cells, tested in cell lysate; Order of tag and PRL follows the printed name only; also called 3xFLAG-PRL-2; not shown: 3×FLAG tag from p3×FLAG-CMV-14
T1 sequence (looked up): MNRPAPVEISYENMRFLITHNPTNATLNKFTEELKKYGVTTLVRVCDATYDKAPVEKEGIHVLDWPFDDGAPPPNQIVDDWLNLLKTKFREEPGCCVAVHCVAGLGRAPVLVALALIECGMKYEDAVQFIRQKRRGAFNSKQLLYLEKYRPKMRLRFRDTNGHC

T2: 3×FLAG-PRL-1 (human, UniProt Q93096 1-170)
T2 construct: Expressed in HEK293T cells, tested in cell lysate; Order of tag and PRL follows the printed name only; also called 3xFLAG-PRL-1; not shown: 3×FLAG tag from p3×FLAG-CMV-14
T2 sequence (looked up): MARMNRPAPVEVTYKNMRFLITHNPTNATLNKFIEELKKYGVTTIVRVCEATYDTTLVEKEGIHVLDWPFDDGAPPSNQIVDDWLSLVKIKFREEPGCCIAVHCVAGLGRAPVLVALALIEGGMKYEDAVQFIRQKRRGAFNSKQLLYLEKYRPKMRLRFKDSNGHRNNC

T3: GFP-PRL-1 (UniProt Q93096 1-170)
T3 construct: Expressed in HCT116 cells, fixed and permeabilized for immunofluorescence; also called CMV:GFP-PRL-1
T3 sequence (looked up): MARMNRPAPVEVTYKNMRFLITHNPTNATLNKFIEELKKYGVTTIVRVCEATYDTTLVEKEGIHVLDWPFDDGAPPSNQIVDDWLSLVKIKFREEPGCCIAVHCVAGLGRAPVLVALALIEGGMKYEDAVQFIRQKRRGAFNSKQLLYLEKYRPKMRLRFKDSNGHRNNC

T4: GFP-PRL-2 (UniProt Q12974 1-164)
T4 construct: Expressed in HCT116 cells, fixed and permeabilized for immunofluorescence; also called CMV:GFP-PRL-2
T4 sequence (looked up): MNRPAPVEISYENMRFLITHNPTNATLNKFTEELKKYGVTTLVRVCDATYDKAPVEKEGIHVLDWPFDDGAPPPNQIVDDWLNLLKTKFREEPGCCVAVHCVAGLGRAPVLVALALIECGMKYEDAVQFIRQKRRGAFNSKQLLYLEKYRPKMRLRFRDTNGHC


Experiments:
3×FLAG-PRL-2 = target: T1, 3×FLAG-PRL-2; assay: immunoprecipitation from HEK293T lysate with nanobody-coupled Dynabeads, anti-FLAG blot
Experimental: (§1) HEK293T cells (˜20 million) were lysed for 30 minutes with intermittent vortexing in Pierce IP lysis buffer (Thermo 87788) supplemented with 1% protease inhibitor cocktail (IP buffer) at 500 μl per 10 million cells and spun at 12,000 rpm for 10 minutes at 4° C. to pellet cell debris. Protein concentration was quantified using the Quick Start Bradford 1× Dye Reagent (Biorad, 5000205). 150 μL of nanobody-coupled beads were washed in 1 mL of PBS for 5 minutes, precipitated, then equilibrated in 500 μL of IP buffer for 5 minutes. 2.5 mg of total extracted protein was added to the balanced nanobody-beads complex for incubation with rocking at 4° C. overnight. After washing the beads-protein complex in cold PBS four times, 50 μL 2× Laemmli Sample Buffer (Biorad, 161-0737) with 2-Mercaptoethanol (Fisher Scientific, 034461-100) was added to the beads, the mixture was boiled at 95° C. for 10 minutes, and the supernatant was collected for western blot analysis.
(§2) PRL-3 substrates remain largely undefined, in part due to insufficient tools for cell-based studies. The current commercially available PRL-3 antibodies have not been extensively validated for specificity towards PRL-3 over other PRLs. To address this, the ability of the anti-PRL-3 nanobodies to identify PRL-3 protein in cell lysate was tested. Anti-PRL-3 nanobodies were coupled to superparamagnetic Dynabeads® M-270 Epoxy beads and used in immunoprecipitation of HEK293T cells expressing either 3×FLAG-PRL-1, -2, or -3. All nanobodies selectively pulled-down 3×FLAG-PRL-3 over PRL-1 and PRL-2, as assessed by anti-FLAG immunoblot (FIGS. 7A and 9A-I). Some nanobodies were more specific to PRL-3 than others; nanobodies 4, 16, 19, and 84 pulled down small amounts of 3×FLAG-PRL-1 and/or PRL-2 (FIG. 3A). Successful nanobody coupling to Dynabeads was confirmed by the presence of 6×-His-tag in all samples (FIG. 3B). […] In total, anti-PRL-3 nanobodies 10, 26, and 91 can be used to specifically immunoprecipitate PRL-3, with no binding to PRL-1 or PRL-2.

3×FLAG-PRL-1 = target: T2, 3×FLAG-PRL-1; assay: as above
Experimental: as §1, §2

GFP-PRL-1 = target: T3, GFP-PRL-1; assay: immunofluorescence on fixed, permeabilized transfected HCT116 cells
Experimental: (§3) HCT116 colorectal cancer cells were transfected with A—CMV:GFP, CMV:GFP-PRL-1, CMV:GFP-PRL-2, or CMV:GFP-PRL-3 for 24 hours prior to cell fixation and permeabilization. Immunofluorescence assays were completed with 1:1000 1 mg/mL NB91 followed by 1:400 Alexa Fluor® 594-AffiniPure Goat Anti-Alpaca IgG, VHH domain and show nanobodies detect PRL-3 but not PRL-1 or PRL-2.
(§4) Transfected cells were plated at 5,000 cells per well in 96-well black glass bottomed plates (Cellvis, P96-1.5H-N). All solution exchanges and imaging occurred in the 96-well plate. 24 hours post-transfection cells were fixed in 4% paraformaldehyde (VWR, AAJ61899-AK) for 15 minutes, rinsed in PBS, permeabilized for 10 minutes in 1% 100× Triton (Sigma, X100-100), and rinsed in PBS. Blocking solution of 2% BSA in PBS was applied for 1 hour to all wells. All nanobodies were diluted to 1 mg/ml in blocking solution, and further diluted 1:1000 and incubated with the cells for 1 hour at room temperature followed by five PBS washes. Detection was carried out using an anti-alpaca IgG VHH conjugated to Alexa Fluor-594 (Jackson ImmunoResearch, 128-585-232) diluted 1:400 in blocking solution, and counterstained with Hoechst, 1:1000 dilution (ThermoFisher, H3570). All wells were washed in PBS five times prior to imaging. Images were acquired with a Nikon MR confocal using the 40× water objective. […]

GFP-PRL-2 = target: T4, GFP-PRL-2; assay: as above
Experimental: as §3, §4

binding result (3×FLAG-PRL-2)	binding result (3×FLAG-PRL-1)	binding result (GFP-PRL-1)	binding result (GFP-PRL-2)	Binder
no binding	no binding	no binding (tested: 1:1000 of 1 mg/mL)	no binding (tested: 1:1000 of 1 mg/mL)	NB91 (VHH, Alpaca nanobody expressed from pMES4 in E. coli; also called nanobody 91; Nanobody 91) VHH: QVQLQESGGGLVQTGGSLRLSCAASQSTFNFDVMGWYRLAPGKQREFLTSITNGGNIYYADSVKGRFTIARDDSKTTMYLEMNSLKPEDTAVYTCYGQTHKPRVTTSWGQGTQVTVSS
no binding	no binding			NB10 (VHH, Alpaca nanobody, C-terminal 6xHis tag intact; also called nanobody 10) VHH: QVQLQESGGGLVQTGGSLRLSCAASQSTFNFNVMGWYRLAPGKQREFLPSLTNGGNIYYADSVKGRFTIARDDSKTTTYLEMNSLKPEDTAVYTCYGQTHKPRVTTSWGQGTQVTVSS
no binding	no binding			NB26 (VHH, Alpaca nanobody, C-terminal 6xHis tag intact; also called nanobody 26; Nanobody 26) VHH: QVQLQESGGGLVQPGGSLKLSCVVTGLHYYTEGWFRQAPGKEREGVSCISSSDGRTDYIDSVKGRFTISEDNDNKTVYLQMNTLKPDDTGVYYCVAERGPRGSTWWETYDYWGQGTHVTVSS
